Consider one sequence from paper PMC6886185.

The series concerns the target eIF4A1 (UniProt P60842). Description: fluorescence anisotropy. As to conditions: 20 mM Hepes/KOH pH 7.5, 100 (mM) KCl, 1 mM MgCl2, 1 mM AMP-PNP, 1 mM TCEP, 0.1% DMSO, +/-50 uM silvestrol (10 uM in Fig 4a legend), 60 min, 25 C; numeric Kd of ….

Chain of eIF4A1 (P60842 whole entry): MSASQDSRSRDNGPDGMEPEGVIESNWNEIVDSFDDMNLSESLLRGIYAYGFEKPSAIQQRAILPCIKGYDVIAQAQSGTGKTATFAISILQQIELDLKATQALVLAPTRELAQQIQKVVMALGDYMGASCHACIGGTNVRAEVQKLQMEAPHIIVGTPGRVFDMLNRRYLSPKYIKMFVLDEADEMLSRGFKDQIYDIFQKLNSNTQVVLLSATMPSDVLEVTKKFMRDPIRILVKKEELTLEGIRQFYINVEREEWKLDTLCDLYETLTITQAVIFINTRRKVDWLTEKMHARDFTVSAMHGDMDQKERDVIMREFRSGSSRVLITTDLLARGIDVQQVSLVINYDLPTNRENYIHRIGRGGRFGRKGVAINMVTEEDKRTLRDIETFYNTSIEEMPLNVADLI

As for AGAGAGAGAGAGAGAGAGAG [(AG)10 ssRNA], the Kd was 0.0033 mM.
